The results in this text go back to patent publication EP4772534A1 (Astellas Pharma, Inc., dated 2026).

This assay concerns the target T1, human FcγRI (human, UniProt P12314 16-288, limits assumed).
T1 construct: Construct used in the Biacore assay (source, tag, limits) is not described; also called human FcyRI
Briefly: Biacore T200 (SPR). A general note: SPR reads the build-up and loss of mass on a sensor chip optically.

Positions count from the first letter of the chain named. Numbers in names are those of the source.

T1 sequence (P12314 16-288 limits assumed): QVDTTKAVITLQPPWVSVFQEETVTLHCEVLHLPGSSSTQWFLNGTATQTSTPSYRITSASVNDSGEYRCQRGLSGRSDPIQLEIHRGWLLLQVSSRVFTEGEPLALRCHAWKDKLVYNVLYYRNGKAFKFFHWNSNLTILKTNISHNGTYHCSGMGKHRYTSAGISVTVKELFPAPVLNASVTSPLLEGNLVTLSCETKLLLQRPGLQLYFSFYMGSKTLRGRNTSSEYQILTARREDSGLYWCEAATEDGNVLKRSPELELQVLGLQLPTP

B1: LYS_E294Del_h1x (antibody, human IgG1, kappa)
heavy: QVQLVQSGAEVKKPGASVKVSCKASGYAFSSSWVNWVRQAPGQGLEWMGRIYPGDGDTDYNGKFKGRVTLTADKSTSTAYMELSSLRSEDTAVYYCARRRGYEAVFDYWGQGTLVTVSSASTKGPSVFPLAPSSKSTSGGTAALGCLVKDYFPEPVTVSWNSGALTSGVHTFPAVLQSSGLYSLSSVVTVPSSSLGTQTYICNVNHKPSNTKVDKKVEPKSCDKTHTCPPCPAPELLGGPSVFLFPPKPKDTLMISRTPEVTCVVVDVSHEDPEVKFNWYVDGVEVHNAKTKPREQYNSTYRVVSVLTVLHQDWLNGKEYKCKVSNKALPAPIEKTISKAKGQPREPQVYTLPPSRDELTKNQVSLTCLVKGFYPSDIAVEWESNGQPENNYKTTPPVLDSDGSFFLYSKLTVDKSRWQQGNVFSCSVMHEALHNHYTQKSLSLSPGK
light: DIQLTQSPSSLSASVGDRVTITCRASESVDNYDISFLNWFQQKPGKAPKLLIYAASNQGSGVPSRFSGSGSGTDFTLTISSLQPEDFATYYCQQSKEVPYTFGGGTKVEIKRTVAAPSVFIFPPSDEQLKSGTASVVCLLNNFYPREAKVQWKVDNALQSGNSQESVTEQDSKDSTYSLSSTLTLSKADYEKHKVYACEVTHQGLSSPVTKSFNRGEC
notes: Expressed in ExpiCHO-S cells without ST6GAL1 co-expression; also called anti-lysozyme antibody having the E294Del amino acid mutation in the human Igγ1 constant region
Take B1: the binding result is listed as “binds”.

B2: LYS_1c3-m1_h10 (antibody, human IgG1, kappa)
heavy: not shown
light: B1 light
notes: human Igγ1 constant region, unmodified Fc; Expressed in ExpiCHO-S cells without ST6GAL1 co-expression; also called anti-lysozyme antibody having the human Igγ1 constant region (Fc non-variant)
For B2, the binding result is “binds”.

B3: LYS_E294Del_LALA_h1x (antibody, human IgG1, kappa, L234A L235A)
heavy: B1 heavy with L236A, L237A
light: B1 light
notes: Expressed in ExpiCHO-S cells without ST6GAL1 co-expression; also called anti-lysozyme antibody having the L234A/L235A/E294Del amino acid mutations in the human Igγ1 constant region
As for B3, the binding result is on record as “no binding”.
